PMC11514443 (Structure (London, England : 1993), 2019)

Tested on: A/Udorn/72 (H3N2) influenza virus
Type: cell-based, A/Udorn/72 (H3N2) influenza virus; human HEK293T cells

B1: WT MORC3 (protein, UniProt Q14149 1-939, looked up)
MORC family CW-type zinc …: MAAQPPRGIRLSALCPKFLHTNSTSHTWPFSAVAELIDNAYDPDVNAKQIWIDKTVINDHICLTFTDNGNGMTSDKLHKMLSFGFSDKVTMNGHVPVGLYGNGFKSGSMRLGKDAIVFTKNGESMSVGLLSQTYLEVIKAEHVVVPIVAFNKHRQMINLAESKASLAAILEHSLFSTEQKLLAELDAIIGKKGTRIIIWNLRSYKNATEFDFEKDKYDIRIPEDLDEITGKKGYKKQERMDQIAPESDYSLRAYCSILYLKPRMQIILRGQKVKTQLVSKSLAYIERDVYRPKFLSKTVRITFGFNCRNKDHYGIMMYHRNRLIKAYEKVGCQLRANNMGVGVVGIIECNFLKPTHNKQDFDYTNEYRLTITALGEKLNDYWNEMKVKKNTEYPLNLPVEDIQKRPDQTWVQCDACLKWRKLPDGMDQLPEKWYCSNNPDPQFRNCEVPEEPEDEDLVHPTYEKTYKKTNKEKFRIRQPEMIPRINAELLFRPTALSTPSFSSPKESVPRRHLSEGTNSYATRLLNNHQVPPQSEPESNSLKRRLSTRSSILNAKNRRLSSQFENSVYKGDDDDEDVIILEENSTPKPAVDHDIDMKSEQSHVEQGGVQVEFVGDSEPCGQTGSTSTSSSRCDQGNTAATQTEVPSLVVKKEETVEDEIDVRNDAVILPSCVEAEAKIHETQETTDKSADDAGCQLQELRNQLLLVTEEKENYKRQCHMFTDQIKVLQQRILEMNDKYVKKETCHQSTETDAVFLLESINGKSESPDHMVSQYQQALEEIERLKKQCSALQHVKAECSQCSNNESKSEMDEMAVQLDDVFRQLDKCSIERDQYKSEVELLEMEKSQIRSQCEELKTEVEQLKSTNQQTATDVSTSSNIEESVNHMDGESLKLRSLRVNVGQLLAMIVPDLDLQQVNYDVDVVDEILGQVVEQMSEISST
- viral infectivity: slight increase in viral infectivity
